The sequences below were run on Escherichia coli TOP10 (assay: shrunken log2 fold change of peptide-encoding DNA abundance (4.5 h post-induction vs induction); higher = less antimicrobial activity (less host growth inhibition)). Details: time post-induction: 4.5 h; library: site-saturation at positions 5, 18, 19, 20.
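Note: peptides expressed intracellularly from a pBAD plasmid library in pooled LB shake-flask culture, induced with 0.3% L-arabinose, DNA abundance read by NGS, three biological replicates, DESeq2 with apeglm shrinkage.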

Row | Sequence | shrunken log2 fold change
1 | RRIRYRPPRLPRPRPRPCPHPRP | -0.0263
2 | RRIRYRPPRLPRPRPRPCPMPRP | -0.476
3 | RRIRYRPPRLPRPRPRPCQLPRP | -0.00957
4 | RRIRYRPPRLPRPRPRPCRNPRP | -0.072
5 | RRIRYRPPRLPRPRPRPCRSPRP | 0.00487
6 | RRIRYRPPRLPRPRPRPCSHPRP | -0.566
7 | RRIRYRPPRLPRPRPRPCSSPRP | -0.941
8 | RRIRYRPPRLPRPRPRPCTFPRP | -0.208
9 | RRIRYRPPRLPRPRPRPCVCPRP | -1.24
10 | RRIRYRPPRLPRPRPRPCVMPRP | 0.0476
11 | RRIRYRPPRLPRPRPRPCVQPRP | -0.236
12 | RRIRYRPPRLPRPRPRPDGEPRP | -0.159
13 | RRIRYRPPRLPRPRPRPDGKPRP | -0.01
14 | RRIRYRPPRLPRPRPRPDGQPRP | 0.0173
15 | RRIRYRPPRLPRPRPRPDHQPRP | -0.167
16 | RRIRYRPPRLPRPRPRPDICPRP | -0.0244
17 | RRIRYRPPRLPRPRPRPDIDPRP | -0.172
18 | RRIRYRPPRLPRPRPRPDKPPRP | -0.0375
19 | RRIRYRPPRLPRPRPRPDLFPRP | 0.108
20 | RRIRYRPPRLPRPRPRPDLHPRP | -0.0267
21 | RRIRYRPPRLPRPRPRPDNFPRP | -1.09
22 | RRIRYRPPRLPRPRPRPDRYPRP | -0.0871

Row | Sequence | shrunken log2 fold change
23 | RRIRYRPPRLPRPRPRPDSMPRP | 0.00804
24 | RRIRYRPPRLPRPRPRPDSPPRP | -0.391
25 | RRIRYRPPRLPRPRPRPDTAPRP | -0.343
26 | RRIRYRPPRLPRPRPRPDTHPRP | -0.22
27 | RRIRYRPPRLPRPRPRPDVIPRP | -0.0708
28 | RRIRYRPPRLPRPRPRPDYCPRP | -0.00674
29 | RRIRYRPPRLPRPRPRPDYYPRP | -0.00141
30 | RRIRYRPPRLPRPRPRPECDPRP | -0.235
31 | RRIRYRPPRLPRPRPRPECEPRP | -0.185
32 | RRIRYRPPRLPRPRPRPEFDPRP | -0.0306
33 | RRIRYRPPRLPRPRPRPEFYPRP | -0.316
34 | RRIRYRPPRLPRPRPRPEGKPRP | -0.0361
35 | RRIRYRPPRLPRPRPRPEHIPRP | -0.0114
36 | RRIRYRPPRLPRPRPRPEHNPRP | -0.0212
37 | RRIRYRPPRLPRPRPRPEHWPRP | -0.0026
38 | RRIRYRPPRLPRPRPRPEIQPRP | 0.0356
39 | RRIRYRPPRLPRPRPRPEMTPRP | -0.0508
40 | RRIRYRPPRLPRPRPRPERGPRP | -0.0437
41 | RRIRYRPPRLPRPRPRPERPPRP | 0.232
42 | RRIRYRPPRLPRPRPRPESGPRP | -0.0308
43 | RRIRYRPPRLPRPRPRPESIPRP | -0.42
44 | RRIRYRPPRLPRPRPRPEVRPRP | -0.187

Row | Sequence | shrunken log2 fold change
45 | RRIRYRPPRLPRPRPRPEWCPRP | -0.244
46 | RRIRYRPPRLPRPRPRPEYRPRP | -0.00979
47 | RRIRYRPPRLPRPRPRPFAFPRP | -1.05
48 | RRIRYRPPRLPRPRPRPFATPRP | -0.49
49 | RRIRYRPPRLPRPRPRPFAVPRP | -1.09
50 | RRIRYRPPRLPRPRPRPFAYPRP | -0.00131
51 | RRIRYRPPRLPRPRPRPFCRPRP | -0.228
52 | RRIRYRPPRLPRPRPRPFCSPRP | -0.425
53 | RRIRYRPPRLPRPRPRPFDCPRP | -0.0565
54 | RRIRYRPPRLPRPRPRPFGQPRP | -0.219
55 | RRIRYRPPRLPRPRPRPFIDPRP | -0.018
56 | RRIRYRPPRLPRPRPRPFIPPRP | -0.296
57 | RRIRYRPPRLPRPRPRPFKSPRP | -0.0165
58 | RRIRYRPPRLPRPRPRPFLWPRP | -0.0621
59 | RRIRYRPPRLPRPRPRPFMRPRP | -0.499
60 | RRIRYRPPRLPRPRPRPFNKPRP | -0.00496
61 | RRIRYRPPRLPRPRPRPFPGPRP | -0.253
62 | RRIRYRPPRLPRPRPRPFPHPRP | -0.137
63 | RRIRYRPPRLPRPRPRPFQHPRP | -0.281
64 | RRIRYRPPRLPRPRPRPFSIPRP | -0.000407
65 | RRIRYRPPRLPRPRPRPFSKPRP | -0.107
66 | RRIRYRPPRLPRPRPRPFTLPRP | -0.019

Row | Sequence | shrunken log2 fold change
67 | RRIRYRPPRLPRPRPRPFVGPRP | -0.193
68 | RRIRYRPPRLPRPRPRPFVMPRP | -1.07
69 | RRIRYRPPRLPRPRPRPFWKPRP | 0.226
70 | RRIRYRPPRLPRPRPRPFWLPRP | -0.0817
71 | RRIRYRPPRLPRPRPRPFWPPRP | 0.0953
72 | RRIRYRPPRLPRPRPRPFWRPRP | 0.0184
73 | RRIRYRPPRLPRPRPRPGCRPRP | -0.0618
74 | RRIRYRPPRLPRPRPRPGDNPRP | -0.0446
75 | RRIRYRPPRLPRPRPRPGEFPRP | -0.35
76 | RRIRYRPPRLPRPRPRPGENPRP | 0.00408
77 | RRIRYRPPRLPRPRPRPGFDPRP | -0.205
78 | RRIRYRPPRLPRPRPRPGFMPRP | -0.279
79 | RRIRYRPPRLPRPRPRPGFNPRP | -0.46
80 | RRIRYRPPRLPRPRPRPGGAPRP | 0.359
81 | RRIRYRPPRLPRPRPRPGGDPRP | 0.137
82 | RRIRYRPPRLPRPRPRPGGLPRP | 3.02
83 | RRIRYRPPRLPRPRPRPGHSPRP | -0.13
84 | RRIRYRPPRLPRPRPRPGISPRP | -0.0863
85 | RRIRYRPPRLPRPRPRPGITPRP | -0.444
86 | RRIRYRPPRLPRPRPRPGMHPRP | -0.339
87 | RRIRYRPPRLPRPRPRPGQEPRP | -0.0317
88 | RRIRYRPPRLPRPRPRPGSGPRP | -0.0839

Row | Sequence | shrunken log2 fold change
89 | RRIRYRPPRLPRPRPRPGTEPRP | -0.521
90 | RRIRYRPPRLPRPRPRPGTIPRP | 0.137
91 | RRIRYRPPRLPRPRPRPGWYPRP | -0.344
92 | RRIRYRPPRLPRPRPRPHAKPRP | -0.0339
93 | RRIRYRPPRLPRPRPRPHAPPRP | -0.0159
94 | RRIRYRPPRLPRPRPRPHDMPRP | -0.00277
95 | RRIRYRPPRLPRPRPRPHDVPRP | -0.379
96 | RRIRYRPPRLPRPRPRPHEYPRP | -0.354
97 | RRIRYRPPRLPRPRPRPHGEPRP | 0.0796
98 | RRIRYRPPRLPRPRPRPHGYPRP | -0.0146
99 | RRIRYRPPRLPRPRPRPHIMPRP | -0.955
100 | RRIRYRPPRLPRPRPRPHIWPRP | -0.272
101 | RRIRYRPPRLPRPRPRPHKWPRP | -0.581
102 | RRIRYRPPRLPRPRPRPHLRPRP | -0.485
103 | RRIRYRPPRLPRPRPRPHMTPRP | -0.845
104 | RRIRYRPPRLPRPRPRPHNLPRP | -0.131
105 | RRIRYRPPRLPRPRPRPHPPPRP | 0.374
106 | RRIRYRPPRLPRPRPRPHRRPRP | -0.0466
107 | RRIRYRPPRLPRPRPRPHRWPRP | -0.0477
108 | RRIRYRPPRLPRPRPRPHSNPRP | -0.0748
109 | RRIRYRPPRLPRPRPRPHSTPRP | -0.181

From the supplement of paper PMC9112550, “Optimization of the antimicrobial peptide Bac7 by deep mutational scanning” (BMC Biology, 2022)
